# Results published in FireProtDB (doi:10.1016/0022-2836(74)90188-0).
# Conditions: Bos taurus, Thermal, DSC, glycine 0.04 M, reversible: yes(>90%)
# Chain of Cytochrome c wild type, P62894 (P62894 whole entry): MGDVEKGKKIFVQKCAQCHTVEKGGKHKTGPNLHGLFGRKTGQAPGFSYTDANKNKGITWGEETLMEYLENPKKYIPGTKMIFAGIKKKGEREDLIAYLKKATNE
substance,measurement,setting,value
"Cytochrome c wild type, P62894",Tm,pH 2.81,52.5 °C
same,unfolding enthalpy (calorimetric),pH 2.81,60 kcal/mol
same,Tm,pH 2.92,54 °C
same,heat capacity change of unfolding,pH 2.92,1.43 kcal/mol/K
same,unfolding enthalpy (calorimetric),pH 2.92,65 kcal/mol
same,Tm,pH 3.05,59 °C
same,heat capacity change of unfolding,pH 3.05,1.48 kcal/mol/K
same,unfolding enthalpy (calorimetric),pH 3.05,70.3 kcal/mol
same,Tm,pH 3.12,61 °C
same,heat capacity change of unfolding,pH 3.12,1.53 kcal/mol/K
same,unfolding enthalpy (calorimetric),pH 3.12,74.3 kcal/mol
same,Tm,pH 3.18,62 °C
same,heat capacity change of unfolding,pH 3.18,1.36 kcal/mol/K
same,unfolding enthalpy (calorimetric),pH 3.18,77 kcal/mol
same,Tm,pH 3.4,66 °C
same,heat capacity change of unfolding,pH 3.4,1.48 kcal/mol/K
same,unfolding enthalpy (calorimetric),pH 3.4,84.6 kcal/mol
same,Tm,pH 3.75,70 °C
same,heat capacity change of unfolding,pH 3.75,1.7 kcal/mol/K
same,unfolding enthalpy (calorimetric),pH 3.75,93.5 kcal/mol
same,Tm,pH 3.94,72 °C
same,heat capacity change of unfolding,pH 3.94,1.65 kcal/mol/K
same,unfolding enthalpy (calorimetric),pH 3.94,96.3 kcal/mol
same,Tm,pH 4.52,77 °C
same,heat capacity change of unfolding,pH 4.52,1.48 kcal/mol/K
same,unfolding enthalpy (calorimetric),pH 4.52,103 kcal/mol
same,Tm,pH 4.83,78 °C
same,heat capacity change of unfolding,pH 4.83,1.53 kcal/mol/K
same,unfolding enthalpy (calorimetric),pH 4.83,107 kcal/mol
